Results: paper doi:10.1101/2021.05.24.445485

Target: Escherichia coli MRE600 30S ribosomal subunits (E. coli)
Experiment: ITC

B1: initiation factor IF1 (natural protein)
chain: MAKEDNIEMQGTVLETLPNTMFRVELENGHVVTAHISGKMRKNYIRILTGDKVTVELTPYDLSKGRIVFRSR
  Kd: 806 nM
